B1: Thermus thermophilus transcription termination factor Rho (natural protein, UniProt Q5SJE9 1-426, looked up)
chain: MRRKETLQETPLTYQELASKILPELHLLAQEAGIEGYKRMKKDQLIMALLERQTQGEGLRLVKGYLEISQDGYGFLTENLHNLESRVAIVSAGLIKQYALRAGDYVVGQARPPRENERYATLLKVEAVNNLDPEAAKNRPRFDELTPQFPDRQIRLETTPDELSTRVIDLLAPIGRGQRGLIVAPPKAGKTTLLKKIANAVLKNEPDIKVIVLLIDERPEEVTDFRESVQGAEVIASTFDEPPQNHIRVAEFVHERAKRIVEEGGHVMILLDSITRLARANNLVTPPTGRTLSGGLDSAALYFPKRFLGAARNIRGGGSLTILATALVETGSRMDDVIFEEFKGTGNMELHLSRRLEERRIFPAIDILKSGTRREELLLGEEVTHKMWLLRKVLADMDPAEAMEMLLARLARTKNNKEFLASLAAR

What was measured:
Experiment in all cases: cryo-EM structure
[1] = molecular target: B1
[2] = molecular target: the molecule itself
[3] = molecular target: Thermus thermophilus RNA polymerase β subunit (Thermus thermophilus, UniProt Q8RQE9 1-1119)
Chain of Thermus thermophilus RNA polymerase β subunit (Q8RQE9 whole entry): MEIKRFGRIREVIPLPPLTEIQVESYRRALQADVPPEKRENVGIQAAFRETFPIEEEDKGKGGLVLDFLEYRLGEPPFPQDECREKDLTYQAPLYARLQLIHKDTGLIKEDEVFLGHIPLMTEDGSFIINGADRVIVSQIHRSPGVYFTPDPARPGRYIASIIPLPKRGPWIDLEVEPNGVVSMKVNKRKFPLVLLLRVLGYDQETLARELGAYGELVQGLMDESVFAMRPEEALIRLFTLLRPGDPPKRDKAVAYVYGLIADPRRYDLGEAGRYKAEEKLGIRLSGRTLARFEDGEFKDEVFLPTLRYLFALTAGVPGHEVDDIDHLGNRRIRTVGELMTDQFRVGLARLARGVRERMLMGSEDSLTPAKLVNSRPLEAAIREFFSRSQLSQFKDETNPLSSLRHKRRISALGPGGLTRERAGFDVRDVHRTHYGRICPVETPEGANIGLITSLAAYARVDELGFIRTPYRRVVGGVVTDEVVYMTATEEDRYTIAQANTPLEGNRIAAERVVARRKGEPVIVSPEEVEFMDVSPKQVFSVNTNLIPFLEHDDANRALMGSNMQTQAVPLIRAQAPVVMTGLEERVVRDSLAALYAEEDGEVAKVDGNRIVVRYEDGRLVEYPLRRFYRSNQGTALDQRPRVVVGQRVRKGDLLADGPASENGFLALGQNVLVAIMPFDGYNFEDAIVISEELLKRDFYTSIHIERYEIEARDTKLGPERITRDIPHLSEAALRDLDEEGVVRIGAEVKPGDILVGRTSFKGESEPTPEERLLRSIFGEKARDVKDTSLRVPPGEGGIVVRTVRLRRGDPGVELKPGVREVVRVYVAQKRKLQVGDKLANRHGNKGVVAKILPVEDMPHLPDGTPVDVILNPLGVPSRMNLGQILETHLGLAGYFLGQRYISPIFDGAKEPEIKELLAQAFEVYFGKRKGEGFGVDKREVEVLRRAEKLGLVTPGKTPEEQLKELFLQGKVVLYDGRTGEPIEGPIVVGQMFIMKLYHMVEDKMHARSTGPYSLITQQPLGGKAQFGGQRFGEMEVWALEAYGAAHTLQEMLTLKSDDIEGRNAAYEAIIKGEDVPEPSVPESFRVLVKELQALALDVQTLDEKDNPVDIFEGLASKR

[4] = molecular target: Thermus thermophilus RNA polymerase β' subunit (Thermus thermophilus, UniProt Q8RQE8 1-1524)
Chain of Thermus thermophilus RNA polymerase β' subunit (Q8RQE8 whole entry): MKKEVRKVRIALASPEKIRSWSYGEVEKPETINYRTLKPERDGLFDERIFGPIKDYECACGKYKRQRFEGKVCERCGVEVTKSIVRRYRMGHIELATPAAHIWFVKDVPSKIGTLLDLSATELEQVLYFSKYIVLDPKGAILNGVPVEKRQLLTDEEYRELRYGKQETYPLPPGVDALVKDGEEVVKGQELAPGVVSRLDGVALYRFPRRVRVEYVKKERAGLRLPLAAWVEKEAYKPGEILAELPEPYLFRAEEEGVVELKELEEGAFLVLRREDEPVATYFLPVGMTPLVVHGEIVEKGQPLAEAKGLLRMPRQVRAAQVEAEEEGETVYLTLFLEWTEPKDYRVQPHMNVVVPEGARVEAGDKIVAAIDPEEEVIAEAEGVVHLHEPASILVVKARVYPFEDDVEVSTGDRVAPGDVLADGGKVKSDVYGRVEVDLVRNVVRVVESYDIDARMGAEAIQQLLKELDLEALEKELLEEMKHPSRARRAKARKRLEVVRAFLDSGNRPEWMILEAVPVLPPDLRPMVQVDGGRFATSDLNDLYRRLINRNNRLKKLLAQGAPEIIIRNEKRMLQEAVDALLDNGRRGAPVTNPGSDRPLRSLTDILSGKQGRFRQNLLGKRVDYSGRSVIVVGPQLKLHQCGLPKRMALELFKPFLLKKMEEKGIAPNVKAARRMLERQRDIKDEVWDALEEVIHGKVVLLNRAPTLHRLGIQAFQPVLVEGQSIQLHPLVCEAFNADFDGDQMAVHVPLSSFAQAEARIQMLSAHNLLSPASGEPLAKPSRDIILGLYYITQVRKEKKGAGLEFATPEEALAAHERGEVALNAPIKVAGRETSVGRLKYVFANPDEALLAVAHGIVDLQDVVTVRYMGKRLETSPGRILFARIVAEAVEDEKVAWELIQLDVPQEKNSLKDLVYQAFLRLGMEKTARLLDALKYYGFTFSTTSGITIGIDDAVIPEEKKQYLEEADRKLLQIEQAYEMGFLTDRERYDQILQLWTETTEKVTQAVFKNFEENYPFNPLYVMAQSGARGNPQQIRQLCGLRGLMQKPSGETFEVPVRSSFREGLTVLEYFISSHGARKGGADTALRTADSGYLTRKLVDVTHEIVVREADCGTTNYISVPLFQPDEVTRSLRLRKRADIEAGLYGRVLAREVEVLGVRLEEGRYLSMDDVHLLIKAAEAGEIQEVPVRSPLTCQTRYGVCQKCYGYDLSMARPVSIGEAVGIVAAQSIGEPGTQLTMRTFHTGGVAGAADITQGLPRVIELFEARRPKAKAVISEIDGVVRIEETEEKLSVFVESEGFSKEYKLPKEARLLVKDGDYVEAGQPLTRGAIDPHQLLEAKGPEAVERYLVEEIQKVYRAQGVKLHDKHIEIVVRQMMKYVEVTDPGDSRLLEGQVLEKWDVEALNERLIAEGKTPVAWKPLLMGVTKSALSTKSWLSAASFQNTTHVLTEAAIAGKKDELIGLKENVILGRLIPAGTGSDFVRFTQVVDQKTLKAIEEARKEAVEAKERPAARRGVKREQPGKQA

| binding result [1] | binding result [3] | binding result [4] | Binder | stoichiometry N [2] |
| --- | --- | --- | --- | --- |
| binds |  |  | Thermus thermophilus RNA polymerase ω subunit (natural protein) MAEPGIDKLFGMVDSKYRLTVVVAKRAQQLLRHGFKNTVLEPEERPKMQTLEGLFDDPNAVTWAMKELLTGRLVFGENLVPEDRLQKEMERLYPVEREE |  |
|  | binds | binds | B1 | 6 |
